System: ScNsrR wild type, [4Fe-4S] holo (Streptomyces coelicolor)
Test: EMSA
Conditions: EMSA: 10 mM Tris, 54 mM KCl, 0.3% glycerol, 1.32 mM glutathione, pH 7.2, on ice ~10 min; 5% PAGE in 1x TBE

Q: Which K half ([4Fe-4S] protein:DNA ratio) does the source give for hmpA1 promoter probe here?
A: < 2

Source: publication PMC5411485
